Reference: a protein production outcome set (Wang et al. 2014)

Test: label from the status in PepcDB records

Sequence	protein production
KFTELEFHRIIGTGQFGLVRVVRNIKTNEVYALKVMHKAPIVESKQIEHVINERKILEEACTHPFCVRLCGAYQDKASLYLLQEWVPGGELFHHLDVEGAFDEPTAMFYAANVLLALEFLHAKGIVYRDLKPENLLLDTQGYIKMADFGFAKYIGGDKTYTICGTPDYQAPEVIMRRGTTKAADYWALGVLIFEMLVGDPPFKSLTGDPWDTFRRTLSGRFYVPNFISDQAADLIFKLLQVNPDKRLGSDKRLGAEEIKRHRWFSRIDWRALEQKKLPSPFRPRVRNPLDTSNFDNFDN	not failed
MNKRKMIGAHSALALLALAVSQVHAADPTVQQGREDRAEKAAQKTLAKMTMEEKLAYIGGTGGWDVKPLTNYGVPQIHGADGGVGVRYTSEGNDQGVVYPSGPNLAATFNPRRAIDLGRALGYDTATGGYQFITGPGVNLYRMPYGGRAFEYLSGEDPFLGASLAPGVINGIQSRGVWANAKHYAANDQESNRFNLDQKMPERVLREMSLPAFESSSKNGNVAMMMCAFQKVNGDFACESEHLIAQILKKEWGYKGFVQSDYNAVVHGFEAARAGTDLDMMGYQMNSSVLKPHLDAGDLSAATIDDKVRRILKQIYLYKFDSKAPLTTHNMNSSTSNKVALNAAREGIVLLKNQGDLLPLDKQKVKKIAVVGTLAKYAPPTGFGSANVMASHYVSELSGLQQMAPNAKVEFIDGLSLDPSTSAWNTTDAAGNSVQGMKVEYFSNTNWSGDAAVTRTEQHVDLDWANDKNLPFESNTSTSDPYTTKGSTAGELNGDTSSTSIRYTGKITPTQSGEQVFKVRADGAVRLWVNGKKIIDNGDGKPLPGNSIPPTIPEFAKINLEAGQSYDVKLEYSRRAGYLSTMGGLVGVQLSSASLNAPQDLSGYDAVVVAVGNSNEYEGEGFDHSFDLPEFQNELIQNIAKVNPNTVVTMYGGTGLKMSDWIEQVPVALHAFYPGQNGGQALAEILFGKINPSGKLPISIERNIEDNPAYASFPKFDNQNTLAEMDYKDDLMLGYRGYEKKGIKPLYPFGYGLSYTTFGYSNIKVTPGVAVGNTPIKVSFDLTNTGKVGGSEVAQLYVGQQNPKVERPIKELKGYKKVFLKPGESKRVTIELNDRSLAYFDVKTNQWVVDADTFNLSLGGSSQDIRLNAKLVNSFRQELSTTTSNPLPRSALNSVLVEKPPVKTGGVFQQTVE	failed
MSSVSLQDFDAERIGLFHEDIKRKFDELKSKNLKLDLTRGKPSSEQLDFADELLALPGKGDFKAADGTDVRNYGGLDGIVDIRQIWADLLGVPVEQVLAGDASSLNIMFDVISWSYIFGNNDSVQPWSKEETVKWICPVPGYDRHFSITERFGFEMISVPMNEDGPDMDAVEELVKNPQVKGMWVVPVFSNPTGFTVTEDVAKRLSAMETAAPDFRVVWDNAYAVHTLTDEFPEVIDIVGLGEAAGNPNRFWAFTSTSKITLAGAGVSFFLTSAENRKWYTGHAGIRGIGPNKVNQLAHARYFGDAEGVRAVMRKHAASLAPKFNKVLEILDSRLAEYGVAQWTVPAGGYFISLDVVPGTASRVAELAKEAGIALTGAGSSYPLRQDPENKNLRLAPSLPPVEELEVAMDGVATCVLLAAAEHYAN	not failed
MEENLISMREDHSFHVRYRMEASCLELALEGERLCKSGDCRAGVSFFEAAVQVGTEDLKTLSAIYSQLGNAYFYLHDYAKALEYHHHDLTLARTIGDQLGEAKASGNLGNTLKVLGNFDEAIVCCQRHLDISRELNDKVGEARALYNLGNVYHAKGKSFGCPGPQDVGEFPEEVRDALQAAVDFYEENLSLVTALGDRAAQGRAFGNLGNTHYLLGNFRDAVIAHEQRLLIAKEFGDKAAERRAYSNLGNAYIFLGEFETASEYYKKTLLLARQLKDRAVEAQSCYSLGNTYTLLQDYEKAIDYHLKHLAIAQELNDRIGEGRACWSLGNAYTALGNHDQAMHFAEKHLEISREVGDKSGELTARLNLSDLQMVLGLSYSTNNSIMSENTEIDSSLNGVRPKLGRRHSMENMELMKLTPEKVQNWNSEILAKQKPLIAKPSAKLLFVNRLKGKKYKTNSSTKVLQDASNSIDHRIPNSQRKISADTIGDEGFFDLLSRFQSNRMDDQRCCLQEKNCHTASTTTSSTPPKMMLKTSSVPVVSPNTDEFLDLLASSQSRRLDDQRASFSNLPGLRLTQNSQSVLSHLMTNDNKEADEDFFDILVKCQGSRLDDQRCAPPPATTKGPTVPDEDFFSLILRSQGKRMDEQRVLLQRDQNRDTDFGLKDFLQNNALLEFKNSGKKSADH	failed
MVRLDLPWDLVDEILSRLPATSLGRLRFTCKRWNALFKDPEFITKQFHKAAKQDLVLMLSNFGVYSMSTNLKEIPNNIEIAQVFHCNGLLLCSTEEGNKTKLVVVNPCTGQTRWIEPRTDYNYNHDIALGYGNNSTKKSYDSYKILRITYGCKLVEIFELKSNSWRVLSKVHPNVEKHYYGGVSFKGNTYWLSYTKFNILSFDFTTETFRSVPLPFLYQDGFVTLALSVVREEQLLLLRSRFDMGQVGIWMCNKIDTETVLSWSKSFTLEFDSLRDLPVMSILRIFIEEDKKVIVVDCDDRWKENMIYIVGKNGFKKLSYEKDRSNLWRLPFFFSYVPSLVGLYPPM	failed
GQLAQDGVPEWFHGAISREDAENLLESQPLGSFLIRVSHSHVGYTLSYKAQSSCCHFMVKLLDDGTFMIPGEKVAHTSLDALVTFHQQKPIEPRRELLTQPCRQKD	not failed
MKKEKLFSLLRYIDNGSLECITSLFLITLSLTMPAIGLGNFGIQVIALSMIPLINVRFPVAALPLALVATVWLNAWADHLLLTGFIVYLAVEYATSRGRFALALILGVEWILIAYGVALERPLEAKDSPSLITEILLILVAAGTGAGRWKILSERKQRAITQQEIIKKIRTDIAHYLHDSMARSLAIMIVQSKLTELEPDPKKIQEKLNSIAKIGQEAVADLHQLVRHLVVEESAEKATAFGAWAAVSIHDTVNSAIQLLVDAGHVVSFDSRKKNYKLDHIAETAFALAFNEAVCNAIKHSPPKANVTIRITEKAQSLQILVMNPIGDWHANGESAIPGVGIGVESLTRRIRNIKGQVCVTSLQGYWKVVISLPLKCEDS	failed
MENSTLYIVIAGLWLAVGFGIFLKKLDMPVIIGYICTGTVLAAFFKINDFDLLSDIGEFGIVFLMFMIGIEFNFDKLKSIKQEVLVFGLLQVVLCALIAFLLGYFVLGLSPIFSLVLGMGLSLSSTAIVLKFFEDSKQLSTPMGKSAVGILIFQDIAAIPMLLILTILGSKDSNVNLLILKTFISAGIILVLLLLPGKKGANLILEQAKDTRLPEIFIGTILVIVCSAAGLSHFFGFSMSLGAFIVGMAISKSRYKINVQEEFAQLKNLFLALFFITIGMQINVSFFMEKFFVVIFLLILVMGFKTAIIYALLRFFRDAKTAIKTALSLAQIGEFSFVIFLNSGSHQLFNLQEKKGILGFLHQKNILNIAQNDIHQLLILMVVFSMLATPFILKYLESIAQFILHQKSQENEPAKK	failed
MRERAASARGVQLARSSRVFRKAEWWNDARRFRTVIASAAKQSDRHRGDSPGLLRCARNDACEAMAERHTATGSDRSTSSLASFELRVERNATFPGNVTRLLHLIVVLLLVAGRTAFAAPCQFESQGDGRVAAIVDARSVRLDDGREIRLTGIEPTATTKQALASLLVGRDVTLRSADDTPDRYGRQGGLIFIGDSDTPVQAMLLAQGDAIVSAEIADKDCAAALMSSEAEARRQKKGNWADPSAIKNAESPDDILAGIGRFVVVEGKVLSVRQAGAMTYLNFGRNWTRGFAVTISRRASPAFETAGIALKSLENRRIRVRGWVEGNTGPRIDVRLVGQVELLGANEPAGVRP	failed
MTAPLHLDSLFPSLDAIPEQYRPDAPIEQRDYLVDGQLRHWDGPLAPVRSPVFLAEADGERQVILGSTPLLDADAALAALDAAVRAYDHGQGLWPNLRVAERIQHVERFLARMREQREAVVKLLMWEIGKNLKDSEKEFDRTCDYIVDTIEALKELDRHSSRFELEQGTLGQIRRVPLGVALCMGPYNYPLNETFTTLIPALIMGNTVVFKPAKFGVLLIRPLLEAFRDSFPPGVINVIYGRGRETVSALMASGKVDVFAFIGTHSGASDLKKLHPRPHRLRAALGLDAKNPGIVLPQVDLDNAVNEAVTGALSFNGQRCTALKILFVHESVLRPFLDKFSARLASLKPGMPWEPGVALTPLPEPGKVDYLEGLLNDALAKGARVVNAGGGEHRQSFFYPALLSPVSPDMRLYHEEQFGPLVPVVPYRELDEVIDYVLRSDYGQQLSLFGNDPAQIGRLVDAFANQVGRINVNAQCQRGPDSYPFNGRKNSAEGTLSVHDALRVFSIRTLVATRDTEANKTLVSEII	failed
MKSYVLGEFGAEAALLDAARTLRARGGATLDLHSPYPLHGAEEALGLRKSTVPLVALVAGITGAVSGYLLQWYTVGYAWPLNVGNRPPHSAPAFIPVTFELGVLFSALAIFVGLLAVYFGFPRVHHPVFEVEAFRSASIDGLWLSAEVEAGDADAVAAELRRLGARLVSVVPEGK	failed
SRFLVLGGAGSIGQAVTKEIFKRNPKKLHVVDISENNMVELVRDIRSSFGYIDGDFQTFALDIGSLEYDAFIKADGKFDYVLNLSALKHVRSEKDPYTLMRMIDVNVFNTDKTIQQSIDAGAKKYFCVSTDKAANPVNMMGASKRIMEMFLMRKSEQIAISTARFANVAFSDGSLLHGFNQRIQKRQPIVAPND	failed
MRVAVITDSHGNAYALEATLREVHAAAPDLIVNLGDQIEGCADPARAAALQADLGALEVRGNNEEKLWPDGRRTPLAQEVGAWLAAQVSPADRERLAALPLTARVEGLFACHGTPESAWDSLLWVWDAAGGFYRSRDPRELRRMVEPLGAEVVVCGHTHRAGATRVGDTLVVNCGAISDQVDGDPRARWTLLERRGGGWNVEFHNVAYDIAGAVAWARAHSPFGDFEAHLLESGEMTGRGTGGI	failed
MNSLSSLAAVLLMAGRSTRMGQPKALLPLGGMPLCRHAAQTLVEAGYGEVWAVLPPGETGDAVRAALQGLPLRWVTNPQPAQGLLSSFQAAGEALWAESAAPAVVFTLADMPLVRRDTHQALGTVFGAEQPAAIITRYGEVAAPPTLLRRDLLPRLHEFPPSDHGPRTLLRELGRELKKIDRPAAELLDIDTPEAWAQAQQLFAEVTPGAQDGP	failed
MSDAETLSVYAAKADDYANLTDEAAARDPSLVAFIAAMPKRGRVLDLGCGPGGSAAAMARAGLVVDAFDPVPEMVALAGRHAGVSARKAGFEDVTQVDHYDGIWANFSLLHAPRDDMPKHLARIATALKPGGRFHIGVKTGTGSKRDTLGRRYTYYSESELVDLLAAAGLTVFDRREGCDTGLDGVDAHWIVLAAHA	failed
MKSVSTWALSFFSDELSRRAVSDCYLWTTAISLLLILLLHIFFSTKFRFFTSAPSSSSSSSSSSSPSTESVPANSQSRISKLVSDEDLKFLIENLEEETNDSTEIWEHVIHKSNDRISYSAKRCKPKDGGGPMKYLSVTVFEGFSAEIVRDFYMDNDYRKLWDKTVVEHEQLQVDSNTGIEIGRTIKKFPLLTSREYVLAWRLWQGKEKKFYCFTKECDHNMVPQQRKYVRVSYFRSGWRIRQGNILSTFDTYLTDTFDTLAAVPGRNACEIKMFHQENAGLNVEMAKLAFSKGIWSYVCKMENALCKYIATSHRTQGPILSAVTLMKEVPSELETGTDNVTGSMETSSGEGVLSHVVAAKQKKKMRKPSTKLIAKGLVLVGGAICLSRGPSALGAKVALAYLLTKLNKRGTSLNQTTQTTTI	failed
